According to patent US20170233495:

test system: All antibodies according to the invention, which were tested (Example 4)

Sequence of recombinant catalytic domain of human MMP19 (chain, as listed by the source): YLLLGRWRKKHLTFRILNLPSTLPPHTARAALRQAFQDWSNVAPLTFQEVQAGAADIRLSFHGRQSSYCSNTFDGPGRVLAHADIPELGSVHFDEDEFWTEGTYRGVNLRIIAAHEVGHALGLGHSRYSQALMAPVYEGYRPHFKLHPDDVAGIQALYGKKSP
Sequence of recombinant catalytic domain of human MMP3 (chain, as listed by the source): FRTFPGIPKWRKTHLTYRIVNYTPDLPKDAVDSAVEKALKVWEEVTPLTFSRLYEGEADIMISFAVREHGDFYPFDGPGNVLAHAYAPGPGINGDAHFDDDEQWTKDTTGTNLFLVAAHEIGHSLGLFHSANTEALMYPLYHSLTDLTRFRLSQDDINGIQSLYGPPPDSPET
Sequence of recombinant catalytic domain of human MMP8 (chain, as listed by the source): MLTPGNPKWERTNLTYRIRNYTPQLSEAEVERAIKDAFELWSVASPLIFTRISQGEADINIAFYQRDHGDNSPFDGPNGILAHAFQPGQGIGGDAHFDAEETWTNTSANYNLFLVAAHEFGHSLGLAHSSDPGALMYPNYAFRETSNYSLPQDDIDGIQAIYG
Sequence of recombinant catalytic domain of human MMP2 (chain, as listed by the source): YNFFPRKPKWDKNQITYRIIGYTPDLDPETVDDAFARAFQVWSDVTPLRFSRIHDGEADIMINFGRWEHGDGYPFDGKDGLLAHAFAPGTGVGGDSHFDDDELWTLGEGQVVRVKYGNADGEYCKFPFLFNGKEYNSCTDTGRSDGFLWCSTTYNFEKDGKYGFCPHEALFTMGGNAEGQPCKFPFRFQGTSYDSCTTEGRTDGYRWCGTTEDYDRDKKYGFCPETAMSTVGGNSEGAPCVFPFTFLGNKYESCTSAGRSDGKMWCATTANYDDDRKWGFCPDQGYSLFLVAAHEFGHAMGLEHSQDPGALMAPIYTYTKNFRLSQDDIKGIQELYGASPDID

Substance | cleavage of fluorogenic peptide OmniMMP RED by MMP catalytic domain, antibody at 100 nM
recombinant catalytic domain of human MMP3 | had no significant effect on the catalytic activity of the eight other human MMPs tested
recombinant catalytic domain of human MMP19 | had no significant effect on the catalytic activity of the eight other human MMPs tested
recombinant catalytic domain of human MMP13 | had no significant effect on the catalytic activity of the eight other human MMPs tested
recombinant catalytic domain of human MMP8 | had no significant effect on the catalytic activity of the eight other human MMPs tested
recombinant catalytic domain of human MMP2 | had no significant effect on the catalytic activity of the eight other human MMPs tested
